Test results: patent publication US20250263675A1

Legend:
[1] = target: recombinant human VEGF (R&D, 293-VE-010) (human) (UniProt P15692); assay: Octet HTX biolayer interferometry; antibody prepared in conditioned medium at 100 ug/mL, diluted to 10 ug/mL in 1x kinetics buffer, as loading sample; recombinant human VEGF 200 to 3.125 nM (data of FIG. 3B); ka Error printed 8.54E+02
[2] = target: recombinant human VEGF (R&D, 293-VE-010) (human) (UniProt P15692); assay: Octet HTX biolayer interferometry in 1x kinetics buffer; antibody at 10 ug/mL in buffer as loading sample, recombinant human VEGF 200 to 3.125 nM (data of FIG. 3A); kdis Error printed 1.34E-07
[3] = target: recombinant human VEGF (R&D, 293-VE-010) (human) (UniProt P15692); assay: Octet HTX biosensor; antibody prepared in conditioned medium and diluted to 10 ug/mL in 1x kinetics buffer, recombinant human VEGF 200 nM to 3.125 nM
[4] = target: recombinant human VEGF (R&D, 293-VE-010) (human) (UniProt P15692); assay: Octet HTX biolayer interferometry; antibody prepared in conditioned medium at 100 ug/mL, diluted to 10 ug/mL in 1x kinetics buffer, as loading sample; recombinant human VEGF 200 to 3.125 nM (data of FIG. 3B); kdis Error printed 1.27E-07
[5] = target: recombinant human VEGF (R&D, 293-VE-010) (human) (UniProt P15692); assay: Octet HTX biosensor, 1x kinetics buffer; antibody at 10 ug/mL in buffer, recombinant human VEGF 200 nM to 3.125 nM
[6] = target: recombinant human VEGF (R&D, 293-VE-010) (human) (UniProt P15692); assay: Octet HTX biolayer interferometry in 1x kinetics buffer; antibody at 10 ug/mL in buffer as loading sample, recombinant human VEGF 200 to 3.125 nM (data of FIG. 3A); ka Error printed 7.60E+02

UniProt P15692, sequence (P15692 other isoform, or with tags, fused parts or gaps limits assumed): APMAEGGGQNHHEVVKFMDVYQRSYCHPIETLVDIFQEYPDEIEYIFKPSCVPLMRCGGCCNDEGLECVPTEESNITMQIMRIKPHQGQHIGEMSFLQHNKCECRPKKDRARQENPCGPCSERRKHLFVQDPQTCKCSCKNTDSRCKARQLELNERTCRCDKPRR

kon [1]: 286000 M⁻¹ s⁻¹ | koff [2]: < 1e-07 s⁻¹ | Kd [3]: < 1 pM | koff [4]: < 1e-07 s⁻¹ | Kd [5]: < 1 pM | kon [6]: 232000 M⁻¹ s⁻¹
Substance: mouse anti-human VEGF monoclonal antibody (R&D, MAB293-100)
